# Results published in patent publication US20130316376.
# Test system: His6ZQGRep4CT
substance,measurement,value
Protease 3C,Protease 3C cleavage of a Z-Rep4CT fiber (SDS-PAGE of the cleavage supernatant),"the Protease 3C cleavage site is available for cleavage in Z-Rep4CT fibers and therefore, the HZ part can be removed"
